Assay results as given in US20210155689A1 (SHANGHAI PHARMAEXPLORER, published 2021).
Numbering of substitutions follows the chain as printed.

B1: 556F6B8 mouse-human chimeric antibody (antibody, V domains shown)
VH: RVQLKQSGPGLVQPSQSLSITCTVSGFSLIKYGVHWVRQSPGEGLEWLGVIWRGGITDYNAAFMSRLSITKDNSKSQVFFKMNSLQADDTAIYYCAKWDGPLAMDYWGQGTSVTVSS
VL: DIVMTQSHKFLSTSVGDRVSITCKASQDVGTTVAWYQQKPGQSPKLLIYWASTRHTGVPDRFTGSGSGTDFTLTISNVQSEDLADYFCQQYSSYPYTFGGGTKLEIK
notes: also called mAb123-556F6B8; 556F8B8
B2: 556F6B8 (mouse antibody purified from hybridoma) (antibody, V domains shown)
VH: B1 VH
VL: B1 VL
notes: also called mAb123-556F6B8
B3: 405B8H3 (mouse antibody purified from hybridoma) (antibody, V domains shown)
VH: QVQLQQSGAELVRPGASVTLSCKASGYTFTDYEMHWVKQTPVHGLEWIGATDPETGNSAYNQKFKGKAIMTADKSSSTAYMELRSLTSEDSAVYYCISTGWNDWGQGTSLTVSS
VL: DIKMTQSPSSMYASLGERVTITCKASQDINSYLSWFQQKPGKSPKTLIYRADRLLDGVPSRFSGSGSGQDYSLTISSLEYGDMGIYYCLQYDEFPYTFGGGTKLEIK
notes: also called mAb103-405B8H3; 405B81-13
B4: 405B8H3 mouse-human chimeric antibody (antibody, V domains shown)
VH: B3 VH
VL: B3 VL
notes: also called mAb103-405B8H3
B5: 105F1E10 mouse-human chimeric antibody (antibody, V domains shown)
VH: EVQLQQSGPELVKPGASVKMSCRASGYTFTDFKMHWMKQSHGKSLEWIGYIAPNNGGTAYNQKFRGKATLTVNESSNTAYMELRSLTSEDSAVYYCVDWDDVDYWGQGTTLTVSS
VL: B3 VL with P40S, D52N, L55V, G81E, D92V, Y96L, G100A, I106L
notes: also called mAb009-105F1E10
B6: 105F1E10 (mouse antibody purified from hybridoma) (antibody, V domains shown)
VH: B5 VH
VL: B3 VL with P40S, D52N, L55V, G81E, D92V, Y96L, G100A, I106L
notes: also called mAb009-105F1E10
B7: 409B11E12 (mouse antibody purified from hybridoma) (antibody, V domains shown)
VH: B3 VH with P41T, G56S, N57Y, M70L, S98A
VL: B3 VL with I2L, D52N, G81E
notes: also called mAb104-409B11E12
B8: 409B11E12 mouse-human chimeric antibody (antibody, V domains shown)
VH: B3 VH with P41T, G56S, N57Y, M70L, S98A
VL: B3 VL with I2L, D52N, G81E
notes: also called mAb104-409B11E12
B9: 409D4E10 mouse-human chimeric antibody (antibody, V domains shown)
VH: B3 VH with Y27N, G56D, S58T, M70L, A72T, S98T, T99S
VL: B3 VL with D52N, G81E, D92N
notes: also called mAb112-409D4E10
B10: 409D4E10 (mouse antibody purified from hybridoma) (antibody, V domains shown)
VH: B3 VH with Y27N, G56D, S58T, M70L, A72T, S98T, T99S
VL: B3 VL with D52N, G81E, D92N
notes: also called mAb112-409D4E10

How the values were obtained:
[1] = molecular target: T1, monkey LAG-3 on cells (HEK293-cLAG-3 stable cell line) (monkey, UniProt P18627 24-525 (human entry)); test: FACS, HEK293-cLAG-3, antibody 1.600 nM
T1 construct: Full-length monkey (Chinese monkey) LAG-3 gene expressed on HEK293 cells
T1 chain: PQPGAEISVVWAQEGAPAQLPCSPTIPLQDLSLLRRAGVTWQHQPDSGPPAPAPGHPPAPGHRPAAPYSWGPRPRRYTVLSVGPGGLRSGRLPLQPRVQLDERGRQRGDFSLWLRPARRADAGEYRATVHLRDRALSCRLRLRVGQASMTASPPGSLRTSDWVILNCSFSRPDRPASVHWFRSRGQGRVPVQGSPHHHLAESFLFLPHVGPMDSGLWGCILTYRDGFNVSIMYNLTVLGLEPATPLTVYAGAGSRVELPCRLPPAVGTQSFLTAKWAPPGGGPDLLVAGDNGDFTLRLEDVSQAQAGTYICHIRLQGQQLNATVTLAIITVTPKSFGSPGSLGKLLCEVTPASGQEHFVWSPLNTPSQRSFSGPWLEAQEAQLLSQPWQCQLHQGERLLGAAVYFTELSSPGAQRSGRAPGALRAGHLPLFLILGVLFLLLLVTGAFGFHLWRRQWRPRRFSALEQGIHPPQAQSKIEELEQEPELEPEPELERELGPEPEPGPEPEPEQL
Description: (§1) The pIRES plasmid with the monkey-derived full-length gene was transfected into the HEK293 cell line to construct a HEK293 stable cell line containing monkey LAG-3 (herein referred to as HEK293-cLAG-3 stable cell line). The HEK293-hLAG-3 stable cell line and HEK293-cLAG-3 stable cell line were expanded in a T-75 cell culture flask to a 90% confluence. The medium was aspirated, and the cells were washed with HBSS (Hanks' Balanced Salt Solution) 1-2 times, then treated with a enzyme-free cell dissociation fluid (Versene solution: Life technology) and the cells were collected. The cells were washed with HBSS buffer for 1-2 times. After counted, the cells were diluted with HBSS to 1-2×10⁶ cells per ml, added with 1% goat serum blocking solution, incubated on ice for 20-30 minutes, and then washed with HBSS for 2 times by centrifugation. The collected cells were suspended in the FACS buffer (HBSS+1% BSA) to 2×10⁶ cells/ml, added as 100 microliters per well to a 96-well FACS reaction plate, added with 100 microliters per well of the antibody sample to be tested, incubated on ice for 1-2 hours. The plate was washed twice with the FACS buffer by centrifugation, added with 100 microliters of fluorescent (Alexa 488)-labeled secondary antibodies per well, and incubated on ice for 0.5-1.0 hours. The plate was washed 2-3 times with FACS buffer by centrifugation, added with 100 μl fixative solution (4% Paraformaldehyde) per well to suspend the cells. 5-10 minutes later, it was washed 1-2 times with FACS buffer by centrifugation. The cells were suspended with 100 microliters of FACS buffer, FACS (FACSCalibur, BD) was used for detection and the results were analyzed.

[2] = molecular target: T2, LAG-3-hFc protein (human LAG-3 extracellular region with hFc tag) (human, UniProt P18627 23-450); test: FACS, inhibition of LAG-3-hFc binding to MHC II on Raji cells, antibody 0.274 nM
T2 construct: also called hLAG-3-hFc; LAG-3 protein; not shown: human IgG Fc fragment (hFc) of the pCpC vector
T2 sequence: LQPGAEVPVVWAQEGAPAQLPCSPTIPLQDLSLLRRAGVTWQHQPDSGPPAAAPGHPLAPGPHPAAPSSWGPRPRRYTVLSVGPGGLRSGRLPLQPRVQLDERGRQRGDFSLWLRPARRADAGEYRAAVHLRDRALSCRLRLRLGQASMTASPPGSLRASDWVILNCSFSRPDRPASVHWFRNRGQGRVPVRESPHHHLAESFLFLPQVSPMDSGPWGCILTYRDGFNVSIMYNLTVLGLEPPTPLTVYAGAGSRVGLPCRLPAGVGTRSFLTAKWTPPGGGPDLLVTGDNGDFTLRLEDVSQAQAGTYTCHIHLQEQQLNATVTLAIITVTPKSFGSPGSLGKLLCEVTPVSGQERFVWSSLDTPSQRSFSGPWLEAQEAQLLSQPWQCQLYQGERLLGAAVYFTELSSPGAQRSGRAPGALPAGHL
Method: (§2) The FACS reaction plate incubating the Raji cells was centrifuged to discard the supernatant. The above mixture was added as 100 μl per well to Raji cells and incubated on ice for 1-2 hours. The plate was washed twice with blocking solution (PBS, 2% fetal bovine serum) by centrifugation, added with 100 microliters of fluorescent (Alexa 488)-labeled secondary antibodies per well, and incubated on ice for 1.0 hours. The plate was washed 2-3 times by centrifugation with blocking solution (PBS, 2% fetal bovine serum), added with 100 microliters of PBS per well to suspend cells, and detected using FACS (FACS Calibur, BD) and the results were analyzed. Wherein, the IgG control was murine IgG, and the data in the table is the inhibition rate (%).

[3] = molecular target: T3, human LAG-3 on cells (HEK293-hLAG-3 stable cell line) (human, UniProt P18627 23-525); test: FACS, HEK293-hLAG-3, antibody 200.000 nM
T3 sequence: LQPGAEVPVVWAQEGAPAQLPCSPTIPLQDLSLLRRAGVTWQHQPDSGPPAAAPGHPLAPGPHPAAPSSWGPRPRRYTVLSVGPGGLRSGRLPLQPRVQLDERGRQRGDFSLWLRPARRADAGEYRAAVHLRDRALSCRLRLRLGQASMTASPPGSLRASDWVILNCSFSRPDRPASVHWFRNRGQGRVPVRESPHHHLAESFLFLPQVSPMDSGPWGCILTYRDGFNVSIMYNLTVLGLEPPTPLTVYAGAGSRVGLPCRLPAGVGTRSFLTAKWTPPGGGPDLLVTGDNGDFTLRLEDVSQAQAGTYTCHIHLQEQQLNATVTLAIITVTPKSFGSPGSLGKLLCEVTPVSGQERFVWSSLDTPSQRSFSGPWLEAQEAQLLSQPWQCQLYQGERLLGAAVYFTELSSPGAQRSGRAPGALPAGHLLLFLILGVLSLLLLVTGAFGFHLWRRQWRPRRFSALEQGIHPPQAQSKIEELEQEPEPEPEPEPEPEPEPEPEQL
Description: as §1

[4] = molecular target: T4, human LAG-3 protein with hFc tag (hLAG-3-hFc protein) (human, UniProt P18627 23-450); test: FACS, blocks LAG-3-hFc binding to MHC II on Raji; 22.222 nM
T4 construct: also called immunogen 1; LAG-3 extracellular domain protein; not shown: human IgG Fc fragment (hFc) of the pCpC vector
T4 sequence: T2 sequence
Method: as §2

[5] = molecular target: T5, human LAG-3 (full length, on the cell surface) (human, UniProt P18627 23-525); test: FACS, HEK293-hLAG-3; 40.000 nM
T5 construct: Full-length human LAG-3 expressed on cells; also called HEK293-hLAG-3; HEK293 cells transfected with LAG-3 gene
T5 sequence: T3 sequence
Description: as §1

Row | Binder | Mean fluorescence intensity [1] | Inhibition rate (%) [2] [%] | Mean fluorescence intensity [3] | Inhibition rate (%) [4] [%] | Mean fluorescence intensity [5] [MFI]
1 | B1 | 19.2 | 21.5 | 125 | – | –
2 | B2 | – | – | – | 95.6 | 81.8
3 | B3 | – | – | – | 93.6 | 321
4 | B4 | 29.4 | 4.3 | 169 | – | –
5 | B5 | 14.7 | -10.1 | 175 | – | –
6 | B6 | – | – | – | 93.6 | 315
7 | B7 | – | – | – | 95.3 | 148
8 | B8 | 32.8 | 4.4 | 171 | – | –
9 | B9 | 25.8 | 11.3 | 151 | – | –
10 | B10 | – | – | – | 95.8 | 153
